Test [1] addresses T1, FIH (Homo sapiens, UniProt Q9NWT6).
T1 construct: made in house
Briefly: FIH assay: decarboxylation of radiolabelled 2OG stimulated by substrate. The class given is biochemical. The following applies: for Activity + FIH (relative to synthetic HIF1alphaCAD): ankyrin peptide substrates, CAD standard peptide = 100; for % activity relative to GST HIF-1α 786-826: substrate incubated with FIH, ascorbate, 2OG, Fe, catalase, 50 mM Tris-HCl pH 7.5, 37° C., 20 minutes; for Stimulation of decarboxylation of 2OG by substrate: recombinant FIH (>95% pure) incubated with each peptide. As to the method:
The peptides shown in Table 1 were tested as potential substrates with purified FIH. The proposed sites of asparaginyl hydroxylation are highlighted in the Table.
In addition p105 ARD and IkappaB-alpha were also assayed as substrates. The substrates were assayed for decarboxylation of 2OG using radiolabelled 2OG as reported in Hewitson et al., J. Biol. Chem. (2002) 277 26351-26355. FIH was incubated with […] of each substrate together with ascorbate, 2OG, Fe and catalase in 50 mM Tris-HCl, pH 7.5 at 37° C. for 20 minutes.
Highly purified (>95% pure) recombinant FIH was incubated individually with each of the p105, IkappaB-alpha and FEM-1 peptides as potential substrates using an assay that measures decarboxylation of 2OG. […] Mutation of the proposed asparaginyl residue to be hydroxylated by FIH in p105 ARD to an alanine residue led to a substantial decrease in 2OG turnover. Incubation of FIH with IkappaB-alpha under standard assay conditions also stimulated turnover to a similar extent as observed for p105 ARD (Table 2).

The target in test [2] is T1, FIH. Description: LC-MS analysis of peptide substrates after incubation with FIH. The test is classed as biochemical. The following applies: after incubation with FIH under standard assay conditions. As to the method:
A Jupiter C4 HPLC column (15 cm×4.6 mm) was used to purify the substrate peptides following incubation with FIH using a linear gradient of 5-95% acetonitrile/0.05% formic acid at a flow rate of 1 ml/min. The eluate from the column was analysed by a MICROMASS™ ZMD quadrupole mass spectrometer in positive mode.
(§1) To check for direct peptide substrate hydroxylation, assay mixtures with each of the peptide substrates were analysed by both NMR and LC-MS.

Test [3] concerns 2-OG dependent oxygenases. Briefly: Assays in which 3-fluoro 2-OG replaces 2-OG as co-substrate. The following applies: compound replaces 2-OG under analogous conditions. The class given is biochemical. An excerpt:
[drawing 5] where each R^1, which are the same or different, is as defined above; R^11 represents OH or R^10NH where R^10 is HO, R^1CO or HOOC(X)x wherein R^11 is as defined above, x is 0 or 1 and X is R^1R^1C wherein each R^1, which are the same or different, is as defined above; or R^10 is an amino acid residue H2N(R^1R^1C)CO— wherein each R^1, which are the same or different, is as defined above; n is 1 or 2 and R^12 is H or straight or branched C1 to C6 alkyl; or a salt thereof. Typically X is CH2 or CHOH. Another aspect of the invention concerns analogues of 2-OG that act as improved (relative to 2-OG) co-substrates for the 2-OG dependent oxygenases. Such a compound is 3-fluoro 2-OG.

A further test deals with 2-OG oxygenases. As to conditions: no test described in this patent; cited from earlier work.
For test [4], the target named is T1, FIH. Description: 2D-NMR of peptides after incubation with FIH. The test is classed as biochemical. The following applies: standard assay conditions. As to the method: Both the FEM-1 and IkappaB-alpha peptides (2 mg) were incubated with FIH under standard assay conditions. Peptides were purified from the assay mixture using a Jupiter C4 HPLC column (15 cm×4.6 mm) with a linear gradient of 5-95% acetonitrile. Peptides were lyophilised and then redissolved in neat ^2H2O containing 1,4-dioxan as the internal chemical shift reference (^1H 3.750, ^13C 67.80 p.p.m.). NMR spectra were obtained using a Bruker Avance DRX500 equipped with an inverse-broadband pulsed-field gradient probe.
as §1

Test [5] addresses T1, FIH. Description: Tryptic digest and MALDI-TOF mass spectrometry after incubation with FIH. The class given is biochemical. As to conditions: incubated with FIH under standard assay conditions, then tryptic digestion; linear and reflectron mode. The method, then: For in-gel digests, gel pieces were incubated with […] in 20 mM ammonium bicarbonate and incubated at 37° C. for 16 hrs. For solution digests, after incubation with FIH under standard assay conditions, a 25 μM sample of substrate was removed from the assay, combined with 2.5 μM trypsin in 25 mM ammonium bicarbonate and incubated at room temperature for 8 hours.
Both in vitro and in vivo produced p105 samples were analysed using an Ettan™ MALDI-ToF Pro mass spectrometer in reflectron mode (Amersham Biosciences) with ANG III and hACTH peptides as internal standards. Tryptic fragments of in vitro produced IkappaB-alpha were analysed using a MALDI-TOF 2T mass spectrometer (MICROMASS™) in reflectron mode using Substance P, hACTH and insulin (B chain, oxidized) calibration standards.
Recombinant IκB-α was incubated with FIH under standard assay conditions followed by tryptic digestion. The resulting tryptic fragments were analysed using both linear and reflectron mode MALDI-TOF mass spectrometry.

T1 sequence (Q9NWT6 whole entry): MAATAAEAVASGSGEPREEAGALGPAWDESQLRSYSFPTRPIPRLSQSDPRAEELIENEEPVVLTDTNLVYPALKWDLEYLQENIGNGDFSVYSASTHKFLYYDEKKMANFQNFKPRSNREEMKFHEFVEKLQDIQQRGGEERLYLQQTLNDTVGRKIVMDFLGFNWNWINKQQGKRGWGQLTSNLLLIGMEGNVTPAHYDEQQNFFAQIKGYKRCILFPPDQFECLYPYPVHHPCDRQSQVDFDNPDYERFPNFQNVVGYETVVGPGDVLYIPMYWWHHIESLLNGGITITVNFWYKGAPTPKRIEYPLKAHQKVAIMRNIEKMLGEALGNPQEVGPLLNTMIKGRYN

In the case of “2-5A-d-R: fragment of 2-5A-d-R, VEVLKILLDEMGADVNACDN (SEQ ID NO: 16) (listed as Homo sapiens)”, the “Activity + FIH (relative to synthetic HIF1alphaCAD)” value in the test with FIH [1] amounted to 27.8. Besides, in the test with FIH [2], the “Hydroxylation of peptide observed by LC-MS analysis” value (shortened to “Hydroxylation of peptide observed”) is reported as “Yes”.
For `O=C(O)CC(F)C(=O)C(=O)O` (stereo not drawn) [3-fluoro 2-OG, 3-fluoro-2-oxoglutaric acid], the “Level of asparagine hydroxylation as co-substrate compared with 2-OG” value in test [3] is listed as “higher level of asparagine hydroxylation”.
Consider `O=C(O)CC1CC(=O)N(O)C1=O` (stereo not drawn) [Is52, (1-hydroxy-2,5-dioxo-pyrrolidin-3-yl) acetic acid], for which the “Activity (in words)” value in the test with 2-OG oxygenases is listed as “highly active”.
For “CAD: HIF C-terminal transactivation domain standard peptide DESGLPQLTSYDCEVNAPI (SEQ ID NO: 11) (listed as Homo sapiens) [reference compound]”, in the test with FIH [1], the “Activity + FIH (relative to synthetic HIF1alphaCAD)” value stood at 100 and the “% activity relative to GST HIF-1α 786-826” value was 75%. In addition, in the test with FIH [2], the “Hydroxylation of peptide observed” value is recorded as “Yes”.
“FEM-1 21 mer: fragment of FEM-1, NALVTKLLLDCGAEVNAVDNE (SEQ ID NO: 3) (listed as Homo sapiens)”: in the test with FIH [1], the “Stimulation of decarboxylation of 2OG by substrate” value (shortened to “Stimulation”) was “roughly equivalent to HIF-1α CAD” and the “% activity relative to GST HIF-1α 786-826” value is listed as 89%. Besides, the “2D-NMR spectra of peptide after incubation with FIH” value with FIH [4] is “consistent with asparaginyl hydroxylation”. Moreover, in the test with FIH [2], the “Hydroxylation of peptide observed” value is “hydroxylated”.
Regarding “FGIF: fragment of FGIF, NTRVASFLLQHDADINAQTK (SEQ ID NO: 20) (listed as Homo sapiens)”, the “Activity + FIH (relative to synthetic HIF1alphaCAD)” value with FIH [1] was found to be 168. For the same molecule, the “Hydroxylation of peptide observed” value in the test with FIH [2] is reported as “Yes”.
Take “GABPbeta: fragment of GABPbeta, HASIVEVLLKHGADVNAKDM (SEQ ID NO: 14) (listed as Homo sapiens)”: the “Activity + FIH (relative to synthetic HIF1alphaCAD)” value with FIH [1] was 107. The “Hydroxylation of peptide observed” value with FIH [2] is “Yes”.
Turning to “GST HIF-1α 786-826: glutathione-S-transferase tagged fragment of the HIF transactivation domains (residues 786-826) [reference compound]”, the “% activity relative to GST HIF-1α 786-826” value with FIH [1] is on record as 100%.
In the case of “Gankyrin/p28-II: fragment of Gankyrin/p28-II, RDEIVKALLGKGAQVNAVNQ (SEQ ID NO: 17) (listed as Homo sapiens)”, the “Activity + FIH (relative to synthetic HIF1alphaCAD)” value in the test with FIH [1] turned out to be 116. Also, the “Hydroxylation of peptide observed” value in the test with FIH [2] is given as “Yes”.
For “IkBa 21 mer: fragment of IκB-α, YLGIVELLVSLGADVNAQEPC (SEQ ID NO: 1) (listed as Homo sapiens)”, in the test with FIH [1], the “Stimulation” value was “roughly equivalent to HIF-1α CAD” and the “% activity relative to GST HIF-1α 786-826” value came to 111%. The “Hydroxylation of peptide observed” value in the test with FIH [2] is reported as “hydroxylated”.
For “M110: fragment of M110, YTEVLKLLIQAGYDVNIKDY (SEQ ID NO: 19) (listed as Homo sapiens)”, the “Activity + FIH (relative to synthetic HIF1alphaCAD)” value in the test with FIH [1] is 122. In addition, the “Hydroxylation of peptide observed” value in the test with FIH [2] is on record as “Yes”.
In the case of “Myotrophin: fragment of Myotrophin, QLEILEFLLLKGADINAPDK (SEQ ID NO: 18) (listed as Homo sapiens)”, the “Activity + FIH (relative to synthetic HIF1alphaCAD)” value with FIH [1] is 154. In the test with FIH [2], the “Hydroxylation of peptide observed” value is listed as “Yes”.
Turning to “Tankyrase 1/2: fragment of Tankyrase, NLEVAEYLLEHGADVNAQDK (SEQ ID NO: 15) (listed as Homo sapiens)”, in the test with FIH [1], the “Activity + FIH (relative to synthetic HIF1alphaCAD)” value turned out to be 107. The “Hydroxylation of peptide observed” value in the test with FIH [2] was “Yes”.
With “p19-INK-4d: fragment of P19-INK4d, FLDTLKVLVEHGADVNVPDG (SEQ ID NO: 13) (listed as Homo sapiens)”, the “Activity + FIH (relative to synthetic HIF1alphaCAD)” value with FIH [1] was determined as 124. In addition, the “Hydroxylation of peptide observed” value with FIH [2] was “Yes”.
Consider “p105 21 mer: fragment of p105, SLPCLLLLVAAGADVNAQEQK (SEQ ID NO: 2) (listed as Homo sapiens)”, for which, in the test with FIH [1], the “Stimulation” value is reported as “roughly equivalent to HIF-1α CAD” and the “% activity relative to GST HIF-1α 786-826” value is given as 100%. Further, the “2D-NMR spectra of peptide after incubation with FIH” value with FIH [4] is “consistent with asparaginyl hydroxylation”.

B1: GST p105 ARD: ankyrin repeat domain of p105 (residues 537-809) downstream of glutathione S-transferase (protein)
chain: AVQDENGDSVLHLAIIHLHSQLVRDLLEVTSGLISDDIINMRNDLYQTPLHLAVITKQEDVVEDLLRAGADLSLLDRLGNSVLHLAAKEGHDKVLSILLKHKKAALLLDHPNGDGLNAIHLAMMSNSLPCLLLLVAAGADVNAQEQKSGRTALHLAVEHDNISLAGCLLLEGDAHVDSTTYDGTTPLHIAAGRGSTRLAALLKAAGADPLVENFEPLYDLDDSWENAGEDEGVVPGTTPLDMATSWQVFDILNGKPYEPEFTSDDLLAQGDM
modifications: left off: a dimerising Fc or GST
notes: ankyrin repeat domain of p105 (residues 537-809) downstream of glutathione S-transferase
Consider B1, for which the “% activity relative to GST HIF-1α 786-826” value with FIH [1] came to 129%.

B2: p105 ARD: ankyrin repeat domain of p105, amino acid residues 537-809 (SEQ ID NO: 22), GST tag cleaved (protein, listed as Homo sapiens)
chain: TAVQDENGDSVLHLAIIHLHSQLVRDLLEVTSGLISDDIINMRNDLYQTPLHLAVITKQEDVVEDLLRAGADLSLLDRLGNSVLHLAAKEGHDKVLSILLKHKKAALLLDHPNGDGLNAIHLAMMSNSLPCLLLLVAAGADVNAQEQKSGRTALHLAVEHDNISLAGCLLLEGDAHVDSTTYDGTTPLHIAAGRGSTRLAALLKAAGADPLVENFEPLYDLDDSWENAGEDEGVVPGTTPLDMATSWQVFDILNGKPYEPEFTSDDLLAQGDM
Consider B2, for which the “% activity relative to GST HIF-1α 786-826” value in the test with FIH [1] stood at 164%.

B3: IkappaB-alpha: recombinant IκB-α protein expressed in Escherichia coli from iκB-α/pGEX-2T construct (protein, UniProt P25963 1-317, looked up)
NF-kappa-B inhibitor alpha: MFQAAERPQEWAMEGPRDGLKKERLLDDRHDSGLDSMKDEEYEQMVKELQEIRLEPQEVPRGSEPWKQQLTEDGDSFLHLAIIHEEKALTMEVIRQVKGDLAFLNFQNNLQQTPLHLAVITNQPEIAEALLGAGCDPELRDFRGNTPLHLACEQGCLASVGVLTQSCTTPHLHSILKATNYNGHTCLHLASIHGYLGIVELLVSLGADVNAQEPCNGRTALHLAVDLQNPDLVSLLLKCGADVNRVTYQGYSPYQLTWGRPSTRIQQQLGQLTLENLQMLPESEDEESYDTESEFTEFTEDELPYDDCVFGGQRLTL
Consider B3, for which the “Hydroxylation of tryptic fragment (MALDI-TOF)” value with FIH [5] is reported as “hydroxylation of the fragment”. Besides, the “% activity relative to GST HIF-1α 786-826” value with FIH [1] stood at 144%.

The record behind these values is US7638295B2, “Assays for identifying modulators of the hydroxylation of ankyrin repeat proteins by 2-oxoglutarate dependent oxygenase and methods of using the same” (priority 2004, dated 2009).
